As usually defined, the Kd is the constant that tells how readily two partners part at equilibrium. The term koff denotes the first-order rate constant of dissociation.

B1: 39B6-ANR IgG4 S228P (antibody, V domains shown)
VH: QVQLVQPGAEVRKPGASVKVSCKASGYRFTSYYIDWVRQAPGQGLEWMGRIDPEDAGTKYAQKFQGRVTMTADTSTSTVYVELSSLRSEDTAVYYCARNRWETVVVGDLMYEYEYWGQGTLVTVSS
VL: DIQMTQSPSSLSASVGDRVTITCQASQSISSYLAWYQQKPGQAPKILIYGASRLKTGVPSRFSGSGSGTSFTLTISSLEPEDAATYYCQQYASVPVTFGQGTKVEIKR
notes: Variant of 39B6-A in IgG4 S228P format; Positions are Kabat-type
B2: 39B6-ANK IgG4 S228P (antibody, V domains shown)
VH: B1 VH with R100K
VL: B1 VL
notes: as for B1
B3: 39B6 human IgG1 (antibody, V domains shown)
VH: B1 VH with A56G, R100E
VL: DIQMTQSPSSLSASVGDRVTITCQASQSISSYLAWYQQKPGQAPKILIYGASRLKTGVPSRFSGSGSGTSFTLTISSLEPEDAATYYCQQYASVPVTFGQGTKVEIK
notes: Full human IgG1, made in HEK 293E cells
B4: 39B10 human IgG1 (antibody, V domains shown)
VH: B1 VH with Q1E, P7S, V11L, R12K, D55E, A56G, V79A, V81M, R100E
VL: B3 VL with V15L, K45N, S70D, S77G, P80A, A83F
notes: as for B3
B5: 38F2 human IgG1 (antibody, V domains shown)
VH: B1 VH with V11L, R12K, M70F, R100E, M110T
VL: DIQMTQSPSSLSASVGDRVTITCQASQSISSYLAWYQQKPGKAPNLLIYGASRLKTEVPSRFSGSGSGTDFTLISGLEPEDAGTYYCQQYASVPVTFGQGTKVEIK
notes: as for B3
B6: 39A12 human IgG1 (antibody, V domains shown)
VH: B1 VH with Q1E, R12K, D55E, A56G, M70F, R100E, M110T
VL: B3 VL with S70D, E79Q, P80A, A83F
notes: Full human IgG1, made in HEK 293E cells; also called 39A12_T
B7: 39A5 human IgG1 (antibody, V domains shown)
VH: QVQLVQPGAELRNPGASVKVSCKASGYRFTSYYIDWVRQAPGQGLEWMGRIDPEDGGTKYAQKFQGRVTFTRDTSTSTVYMELSSLRSEDTAVYYCARNEWETVVVGDLMYEYEYWGQGTLVT
VL: B3 VL with V15L, I46L, S70D, E79Q
notes: as for B3
B8: Fab 38F2 (Fab, V domains shown)
VH: B1 VH with V11L, R12K, M70F, R100E, M110T
VL: B5 VL
notes: Germlined Fab with human CH1 and Cκ (pCB13), tested as periplasmic extract
B9: Fab 39B10 (Fab, V domains shown)
VH: B1 VH with Q1E, P7S, V11L, R12K, D55E, A56G, V79A, V81M, R100E
VL: B3 VL with V15L, K45N, S70D, S77G, P80A, A83F
notes: as for B8
B10: Fab 39B6 (Fab, V domains shown)
VH: B1 VH with A56G, R100E
VL: B3 VL
notes: as for B8
B11: Fab 39A12 (Fab, V domains shown)
VH: B1 VH with Q1E, R12K, D55E, A56G, M70F, R100E, M110T
VL: B3 VL with S70D, E79Q, P80A, A83F
notes: Germlined Fab from the phage library with human CH1 and Cκ (pCB13), tested as periplasmic extract
B12: Fab 39A5 (Fab, V domains shown)
VH: B7 VH
VL: B3 VL with V15L, I46L, S70D, E79Q
notes: as for B8
B13: 39B6-A IgG4 S228P (antibody, V domains shown)
VH: B1 VH with R100E
VL: B1 VL
notes: 39B6 with G55A in HCDR2, in the human IgG4 S228P backbone; also called 39B6-ANE
B14: 39B6-AEE IgG4 S228P (antibody, V domains shown)
VH: B1 VH with N99E, R100E
VL: B1 VL

Changes are numbered by the printed parent chain. Names and notes keep the numbering of the source.

T1 sequence (Q14392 20-627 limits assumed, chain 1 of 3): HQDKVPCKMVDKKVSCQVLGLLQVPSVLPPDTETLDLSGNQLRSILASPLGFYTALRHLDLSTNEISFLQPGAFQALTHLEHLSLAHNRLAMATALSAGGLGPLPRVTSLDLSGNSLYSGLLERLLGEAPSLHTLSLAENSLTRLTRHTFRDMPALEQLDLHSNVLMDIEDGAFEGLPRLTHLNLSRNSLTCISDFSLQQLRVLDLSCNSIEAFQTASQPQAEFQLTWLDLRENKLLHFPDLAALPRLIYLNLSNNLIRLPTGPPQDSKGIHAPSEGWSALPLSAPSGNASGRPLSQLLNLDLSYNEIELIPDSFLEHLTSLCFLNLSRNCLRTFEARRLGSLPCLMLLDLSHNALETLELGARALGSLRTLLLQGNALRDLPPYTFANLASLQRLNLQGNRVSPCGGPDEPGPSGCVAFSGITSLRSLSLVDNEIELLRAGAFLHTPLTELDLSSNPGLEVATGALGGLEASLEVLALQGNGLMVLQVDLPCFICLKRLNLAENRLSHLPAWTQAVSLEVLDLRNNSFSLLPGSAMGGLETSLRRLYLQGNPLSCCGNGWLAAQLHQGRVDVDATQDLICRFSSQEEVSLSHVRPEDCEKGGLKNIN
T1 sequence (P01137 30-278 limits assumed, chain 2 of 3): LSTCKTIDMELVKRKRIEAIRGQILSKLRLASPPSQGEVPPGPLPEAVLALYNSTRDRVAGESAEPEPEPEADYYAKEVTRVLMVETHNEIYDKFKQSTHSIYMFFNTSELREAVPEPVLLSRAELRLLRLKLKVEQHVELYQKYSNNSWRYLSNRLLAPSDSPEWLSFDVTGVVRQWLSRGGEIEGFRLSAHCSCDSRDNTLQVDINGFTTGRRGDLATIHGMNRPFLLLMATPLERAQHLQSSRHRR
T1 sequence (P01137 279-390 limits assumed, chain 3 of 3): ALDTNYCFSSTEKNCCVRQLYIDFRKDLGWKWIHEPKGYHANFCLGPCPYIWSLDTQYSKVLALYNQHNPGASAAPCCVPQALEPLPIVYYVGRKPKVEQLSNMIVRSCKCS

The first assay has as its target T1, human GARP-TGF-β1 complex (recombinant complex of human GARP and latent human TGF-β1) (human, UniProt Q14392 20-627; P01137 30-278; P01137 279-390).
T1 construct: also called huGARP-TGF-β1; hGARP-TGF-β1
Description: SPR Biacore 3000, chip ~4000 RU hGARP-TGF-β; slope vs -20°C reference (=100%); sample 0 d, 37°C arm. On the procedure:
(§1) From the intermediate concentration of all samples at 1 mg/ml described above, an extra 1/250 dilution was done for SPR analysis to yield a final concentration of 4 μg/ml. This 1/250 dilution took place for all conditions in two steps: a) 5 μl (1 mg/ml)+120 μl HBS-EP (SPR buffer) and b) an extra 10× dilution (15 μl+135 μl HBS-EP). For each antibody and each time point, a separate standard curve was prepared, starting from a −80° C. frozen sample. This was analyzed together with the stability samples to determine the slope of each curve after general fitting of the standards. These slopes were used to calculate the percent activity of the stability samples by setting the reference sample at 100%.
(§2) To determine the target binding activity in Biacore, a CM5 chip was coated with ˜4000 RU human GARP-TGF-β complex. Flow was set to 30 μl/min with a “kinject” injection mode and two regeneration injections (1 mM NaCl, 2.5 mM glycine pH 1.5) with a 5 min interval.
(§3) Open the curves in the BIAEVAL program and select value ‘2-1’ (1: blank, 2 hGARP-TGF-β1) [0263] Select one curve at the time for plot overlay [0264] Delete the regeneration part of the curve [0265] Select the baseline just before the injection and transform the Y-axis for ‘zero at median of selection’ [0266] Select ‘General Fit’, starting from 120 sec after injecting and ending at 155 sec [0267] Plot the standards in Excel and determine the slope of the curve for each antibody [0268] These values are converted to a percent activity by setting the reference (sample stored at −20° C.) at 100%
Take B1: the “Activity on Biacore (%)” value was determined as 101%.
Same read-out and setting: the value for B2 was 130%.

For another assay, the target named is T1, human GARP-TGF-β1 complex (recombinant …). Description: SPR, IgG1 on human GARP-TGF-β1 complex. An excerpt:
The five germlined clones reformatted to human IgG1 were produced by transient transfection in HEK 293E cells.
In the case of B3, the dissociation constant Kd was found to be 0.167 nM and the “fold difference (KD vs 17H5)” value came out at 1.7 fold.
The like results for B4 were, in that order, 0.262 nM and 2.6 fold.
The like results for B5 were, in that order, 0.48 nM and 4.8 fold.
The like results for B6 were, in that order, 0.505 nM and 5.1 fold.
Regarding B7, the Kd was determined as 0.298 nM and the “fold difference (KD vs 17H5)” value worked out at 3 fold.

Another assay shares this target. The assay is described as follows: SPR, Fab in periplasmic extract, off-rate on human GARP-TGF-β1 complex. On the procedure: Masterplates were picked from selection round 2, 3, 4, 5 and 6 (48 clones for each round). Periplasmic extracts were prepared and off-rates were determined by SPR. All clones were DNA-sequenced and amino acid sequences were deduced thereof. The off-rates of these clones were measured as periplasmic extracts on SPR, and compared to the off-rate of Fab 17H5.
(In SPR one partner is held on a chip, and binding of the other changes the refractive index at the surface.)
For B8, the koff stood at 0.000408 s⁻¹.
As for B9, the koff came out at 0.000236 s⁻¹.
With B10, the off-rate (koff) came out at 0.000105 s⁻¹.
Consider B11, for which the koff came to 0.000606 s⁻¹.
Still for that read-out and setting: the same measure for B12: 0.00019 s⁻¹.

The next assay has the same target. Description: SPR Biacore T200, CM5 chip coated with GARP-TGF-β1 complex at 150 RU. On the procedure: (§4) The affinity of all antibodies (including 39B6-A) for GARP-TGF-β1 was tested by BiacoreT200 using a CM5 chip coated with GARP-TGF-β1 complex at 150RU (Table 17) or coated with the antibodies at 200RU (Table 17)
Regarding B13, the “Fold-difference (KD vs 39B6-A)” value is 1 fold and the Kd is 0.991 nM.
On to B14, for which the “Fold-difference (KD vs 39B6-A)” value is 5.8 fold and the equilibrium dissociation constant (Kd) is 5.79 nM.
B1: the “Fold-difference (KD vs 39B6-A)” value was 0.9 fold and the Kd was found to be 0.884 nM.
The corresponding values for B2 are 0.9 fold and 0.88 nM.

Another assay has the same target. The assay is described as follows: SPR Biacore T200, CM5 chip coated with the antibody at 200 RU, complex in solution. On the procedure: as §4
B13: the “Fold-difference (KD vs 39B6-A)” value worked out at 1 fold and the Kd stood at 1.33 nM.
B14: the “Fold-difference (KD vs 39B6-A)” value was determined as 76.7 fold and the dissociation constant Kd was determined as 102 nM.
The like results for B1 were, in that order, 1.5 fold and 1.94 nM.
For B2, the “Fold-difference (KD vs 39B6-A)” value was determined as 1.5 fold and the Kd came out at 2.02 nM.

A further assay shares this target. Description: SPR Biacore 3000, chip ~4000 RU hGARP-TGF-β; slope vs -20°C reference (=100%); sample stored 28 d at 37°C. On the procedure:
as §1, §2, §3
Regarding B1, the “Activity on Biacore (%)” value worked out at 85.4%.
Same read-out and setting: the value for B2 was 77.8%.

The target is the same in the next assay. Description: SPR Biacore 3000, chip ~4000 RU hGARP-TGF-β; slope vs -20°C reference (=100%); sample stored 56 d at 5°C. The procedure: as §1, §2, §3
With B1, the “Activity on Biacore (%)” value came out at 85.4%.
On to B2, for which the “Activity on Biacore (%)” value came to 101%.

The target is the same in another assay. Description: SPR Biacore 3000, chip ~4000 RU hGARP-TGF-β; slope vs -20°C reference (=100%); sample 0 d, 5°C arm. The procedure:
as §1, §2, §3
Take B1: the “Activity on Biacore (%)” value came to 101%.
On to B2, for which the “Activity on Biacore (%)” value is 130%.

The target is the same in the next assay. Description: SPR Biacore 3000, chip ~4000 RU hGARP-TGF-β; slope vs -20°C reference (=100%); sample stored 28 d at 5°C. On the procedure:
as §1, §2, §3
Regarding B1, the “Activity on Biacore (%)” value stood at 129%.
The same measure, in the same setting: the value for B2 was 101%.

For a further assay the target is unchanged. Description: SPR Biacore 3000, chip ~4000 RU hGARP-TGF-β; slope vs -20°C reference (=100%); sample stored 56 d at 37°C. On the procedure:
as §1, §2, §3
Consider B1, for which the “Activity on Biacore (%)” value was 46.3%.
Same read-out and setting: the value for B2 was 62.4%.

For the origin of these results see patent US20210324061A1 (ARGENX BVBA, published 2021).
